Measurements taken from the DeepSol protein solubility set.

Assay: soluble on expression in E. coli; label from the status in PepcDB or PDB records

Sequence	soluble on expression in E. coli
MGTIGKKAAKGASVKFSESSTQAVIKATYLQVFGRDVYEGQRLKVQEIKLENGEISVRDFVRALAKSDLFRKLYWTPFYVCKAIEYIHRRLLGRPTYGRQENNKYFDIASKKGLYAVVDAILDSLEYTETFGEDTVPYERYLTPAGLEHHHHHH	not soluble
MGTVHARSLDPLPMNGPDFGSPDDADLVEVEPQKKQEILENKDVVVQRVHFEGLGRTKDDLVAHEIGQVFKAKNLIEVMRKSHEAREKLLRLGVFRNVEVLIDTCEGEDAVPNGLDVTFEVTELRRVTGSYNTMVGNNEGSMVLGLKLPNLFGRAEKMTFQFSYGTKETSYGLSFFKPQVGNFERNFSVNLYKVTGQFPWSSLRETDRGVSAEINFPIWKTSHTLKWEGVWRELGCLARTASFTIREESGHTLKSSLSHSMVIDSRNASILPKSGALLKINQELAGYTGGDVSFLKEDFELQLNRQLTWDSVLSTSLWGGMLVPIGDRPSSIADRFYLGGPTSVRGFSMYSIGPQSEGDYLGGEAYWAGGVHLYTPLPFRPGRGGFGDLFRTHFFLNAGNLCNLNYGEGPGAHLRRLAECIRWSYGAGLVLRLGNIARLELNYCIPMGVQSGDRICDGVQFGAGIRFL	soluble
MGTVHARSMDSYPMYGRDLGVNTDDMEVMEAVQETKQEVLENKDVVVQHVNIEGLGRTKEDYLGYEISDVFTARNLVEVMRKSHEARQRLLRLGIFRDVEVVIDISEGADALPNGLDVTFEVTELKRLTGSYNTMVGNNEGSMVLGIKLPNMLGRGEKLTFQFSYGTKETSYGLSFFKPQSGYFERNFTVNLYKVTGQFPWSSLKETDRGVSTELSLPLWMTDHTLKWEGVWRELGCLARSASFAVREESGHTLKSALSHTMVVDTRNSAILPRKGALLRINQELAGYTGGDANFLKEDVELQLNKQFIWGSVLSASLWGGMIYPLGAQPTSIADRFYLGGPTSVRGFGMYSIGPQSEGDYLGGEAYWAGGLHLYTPLPFRSNKGGLADLFRTHFFLNAGNICNLNYGEGPRAHLQKLAECIRWSYGAGIILRLGNIARLELNYCFPMGVQSGDRICDGVQFGAGIRFL	soluble
MGVFLFDRDCRYTVAGGGEISSAGLTPADFEGSKPHDLFSEAIADELEHYYREALDGHSHSFEQQYRGKHYRVQTVPVRDDNGEVISGLAVSEDVTARRERQRTLERQNERLREFAGVVSHDLRNPLNVAQGRLKLARAECDSEHLDNVAAAIERSNRLIDDLLTLASSGDEVTETASLDLGAVVDGCWQNVPTDGATLVVRSEQTVVADRGRLEQLLENLVRNAVEHAFPQSEVSLDAAEGDASDLTVTVGALEDGFYVEDTGPGIPPEERDDVFKGGYSTAADGTGFGLRIVRQIAEAHGWTVTVADGEHGGARFEVRGIETT	not soluble
MGYKTILAVVDNVSNTQKLGEFVVSLADQFSSHVIGLHMETLAAVPLVAPMEIPDPATVQALQDVAHKETTDVGTLFERTLSTNGISHEWRSFVTSVGYASASAIDSARCADLIVARQSSSSALSDSRSDIDGFLYESGRPVLLVPHVLTVAKPIKRVLIAWNGSREATRATFDALPFLKAADSVEIFSVDQSESETQSAGLAGAELAATLARHGVNVTVTSQEKIAGLSPQAAIENRLSDNSIDLLVMGAYGHSRWWELLFGGVTRTLLDSMTAMTLLSR	soluble
MGYSSDTTPCCFAYIARPMPRAHIKEYFYTSGKCSNPAVVFVTRKNRQVCANPEKKWVREYINSLEMS	soluble
MHAEKDLITKETTQPVPPPAAVVTHQPITKRYDPPISISPPPQRNNYSHVKVTVDSDTSPRQQAFIDDIVAKGGKLAVVTYDRGGQNTKELTVHKGEYLEVIFDERNWWECKNMHQRVGYVPHTILSMVPFEQQQYASPNHHNNSSSTGGYNNGHHQGPGMLPEDAPSYVKERQGKRGEFRYF	not soluble
MHAQFHHVSLLARHGQENQSFYTKLLGLRFVKNTVNQDNNRMPHYFYGDYQGTPGSLVTFFIVPLLGNRYEEKNYLATIGLKIPQNSLSFWEQRLTENKIPFNKKEKSLHFSDPDDTHIILTEVPENPLKETLVVSNDIPAAVQIIGLASTEFHVPDSEKTLAFFETFLGWQAVGNTIILSETESFSVHQTTSDKTSRMGRGSMDHIAFSVADDEALQELHTRALAQGWEIEMYVSRGYFKSLYIREPGGNRVEFATLTPGFTLDEPLEHLGETLALPPFLEPKRTAIEANLYKDM	not soluble
MHCPFCDTEETKVIDSRLVSDGYQVRRRRECGHCHERFTTFEMAELIIPKIIKTDGTREPFNEDKLRSGIQHALEKRPVSADDVEKAINHIILQLRATGEREVPSKLVGKLAMNELKKLDKVAYIRFASVYLSFDDIDQFTIEIEKLKD	not soluble
MHFKRVVKWGLNMYQNQRIKDKINILGVNFDNTTMLEMLENIKQFISSNTDDNLFIVTANPEIVDYATEHELYRNLINQADYVVPDGTGIVKASKRLKQPLKRRVPGIELLEECLKIAHVSHQRVYLLGSKNEIVETAEKKLQSQYPNIHFAHHHGYIHLEDETVIKRITSFNPDYIFVGMGFPKQEQWIQKHKDKFKHTVMMGVGGSFEVFSGSKKRAPQIFRKLNIEWVYRVLIDWKRIGRMISIPKFMLKVAIQKYKMKSK	not soluble
MHFRMKVLENSSKHNTPKKQKTFQHYLPAGDRCYSCIHCRANLAAHAELISKSFQGSQGKAYLFNAVVNVGCGPAEERVLLTGLHAVADIYCEICKTTLGWKYEHAFESSQKYKEGKFIIELAHMVKDNGWDEQNDS	not soluble
MHGNPMNIPPVSIAAAKAALIEQYADPTLRRRASMLWGTRGVGKSSIVRQVAAHYRVPLIDLRLTTIEPVDIRGAIYADENLAKTVWFPPEFLPSRDQPEGVLFLDELTAADQRLQISAYSLILDRRVGNYHLPDGWQVVAAGNASFHGAISHDMGTALADRMFHFNVQTAIDAFLNHAITQEFAPEVMAYLKIRPDKLDDTQAQLAGDHLIGASPRGWEDISNVLKSGLSDHAKRLFVQGRIGAANAAEFFGVLREIQAGTDVLKLLAARPGPETAALLPKSLDALYGMLYGLLAASTDKQTMARALEIIEQLPDIRSAAPLPIREAQTLAMELLMQRGLENGLESAILDSPAYASYAGRRQLEASDALEHHHHHH	not soluble
MHHHHHHENLYFQSNAMGSTRPIDGLTDEDIREILTRYKKIALVGASPKPERDANIVMKYLLEHGYDVYPVNPNYEEVLGRKCYPSVLDIPDKIEVVDLFVDPAKAWRFVVYAIKKGAKVVWFQYNTYYPLAARQAKEAGLIIVANRCMMREHERLLGEK	soluble
MHHHHHHMTSVMSHEFQLATAETWPNPWPMYRALRDHDPVHHVVPPQRPEYDYYVLSRHADVWSAARDHQTFSSAQGLTVNYGELEMIGLHDTPPMVMQDPPVHTEFRKLVSRGFTPRQVETVEPTVRKFVVERLEKLRANGGGDIVTELFKPLPSMVVAHYLGVPEEDWTQFDGWTQAIVAANAVDGATTGALDAVGSMMAYFTGLIERRRTEPADDAISHLVAAGVGADGDTAGTLSILAFTFTMVTGGNDTVTGMLGGSMPLLHRRPDQRRLLLDDPEGIPDAVEELLRLTSPVQGLARTTTRDVTIGDTTIPAGRRVLLLYGSANRDERQYGPDAAELDVTRCPRNILTFSHGAHHCLGAAAARMQCRVALTELLARCPDFEVAESRIVWSGGSYVRRPLSVPFRVTSSR	soluble
MHHHHHHSSGLVPRGSGMKETAAAKFERQHMDSPDLGTDDDDKAMADIGSEFDMANIAVQRIKREFKEVLKSEETSKNQIKVDLVDENFTELRGEIAGPPDTPYEGGRYQLEIKIPETYPFNPPKVRFITKIWHPNISSVTGAICLDILKDQWAAAMTLRTVLLSLQALLAAAEPDDPQDAVVANQYKQNPEMFKQTARLWAHVYAGAPVSSPEYTKKIENLCAAGFDRNAVIVALSSKSWDVETATELLLSN	soluble
MHHHHHHSSGRENLYFQGPQDLMVTCTAPVNIAVIKYWGKRDEALILPINSSLSVTLHQDQLKTTTTVAISKDFTEDRIWLNGREEDVGQPRLQACLREIRRLARKRRSTEDGDTLPLSLSYKVHVASVNNFPTAAGLASSAAGYACLAYTLAQVYGVEGDLSEVARRGSGSACRSLYGGFVEWQMGEQADGKDSIARQIAPEWHWPQLRILILVVSADKKQTGSTVGMQTSVETSTLLKFRAESVVPERMKEMTRCIQEQDFQGFAQLTMKDSNQFHATCLDTFPPISYLNDTSRRIIQLVHRFNTHHGQTKVAYTFDAGPNAVIFTLEDTVAEFVAAVRHSFPPAANGDKFLKGLQVAPVLLSDELKAALVVEPSPGGVQYIIATQVGPGPQVLDDTHDHLLGQDGLPQRDL	soluble
MHHHHHHSSGVDLGTENLYFQSMKSVHSSPQNTSHTIMTFYPTMEEFADFNTYVAYMESQGAHQAGLAKVIPPKEWKARQMYDDIEDILIATPLQQVTSGQGGVFTQYHKKKKAMRVGQYRRLANSKKYQTPPHQNFADLEQRYWKSHPGNPPIYGADISGSLFEESTKQWNLGHLGTILDLLEQECGVVIEGVNTPYLYFGMWKTTFAWHTEDMDLYSINYLHFGEPKTWYVVPPEHGQHLERLARELFPDISRGCEAFLRHKVALISPTVLKENGIPFNCMTQEAGEFMVTFPYGYHAGFNHGFNCAEAINFATPRWIDYGKMASQCSCGESTVTFSMDPFVRIVQPESYELWKHR	soluble
MHHHHHHSSGVDLGTENLYFQSMSSVTASAAPGTASLVPDYWIDGSNRDALSDFFEVESELGRGATSIVYRCKQKGTQKPYALKVLKKTVDKKIVRTEIGVLLRLSHPNIIKLKEIFETPTEISLVLELVTGGELFDRIVEKGYYSERDAADAVKQILEAVAYLHENGIVHRDLKPENLLYATPAPDAPLKIADFGLSKIVEHQVLMKTVCGTPGYCAPEILRGCAYGPEVDMWSVGIITYILLCGFEPFYDERGDQFMFRRILNCEYYFISPWWDEVSLNAKDLVRKLIVLDPKKRLTTFQALQHPWVTGKAANFVHMDTAQKKLQEFNARRKLKAAVKAVVASSRLG	soluble
MHHHHHHSSGVDLGTENLYFQSNAMEPFKHPIAILGAGSWGTALALVLARKGQKVRLWSYESDHVDEMQAEGVNNRYLPNYPFPETLKAYCDLKASLEGVTDILIVVPSFAFHEVITRMKPLIDAKTRIAWGTKGLAKGSRLLHEVVATELGQVPMAVISGPSLATEVAANLPTAVSLASNNSQFSKDLIERLHGQRFRVYKNDDMIGVELCGSVKNILAIATGISDGLKLGSNARAALITRGLTEMGRLVSVFGGKQETLTGLAGLGDLVLTCTDNQSRNRRFGLALGEGVDKKEAQQAIGQAIEGLYNTDQVHALAQKHAIEMPLTFQVHRILHEDLDPQQAVQELLERSPKAE	soluble
MHHHHHHSSGVDLGTENLYFQSNAMLLPTDLSENSFKVLEYLGDFKKVGVEEIGVLFVINLTKLSTVSGGIDIDHYIDEMSEKAEEVLPEVAQKIEAAGIKAEVIKPFPAGDPVVEIIKASENYSFIAMGSRGASKFKKILLGSVSEGVLHDSKVPVYIFKHDMVVNSLFDRVLVAYDFSKWADRALEYAKFVVKKTGGELHIIHVSEDGDKTADLRVMEEVIGAEGIEVHVHIESGTPHKAILAKREEINATTIFMGSRGAGSVMTMILGSTSESVIRRSPVPVFVCKRGDDE	soluble
MHKEIAKELLLLAGGKNNIISISHCTTRLRFDVKDETKIDIHAIENLQGVQGTFFRYGLFQIIFGAGVVNKIYKEVVHVWETAPSEEPVHQKKASRKLNPAAAFAKTLSDI	not soluble
MHQVVCATTNPAKIQAILQAFHEIFGEGSCHIASVAVESGVPEQPFGSEETRAGARNRVANARRLLPEADFWVAIEAGIDGDSTFSWVVIENASQRGEARSATLPLPAVILEKVREGEALGPVMSRYTGIDEIGRKEGAIGVFTAGKLTRASVYHQAVILALSPFHNAVY	soluble
